How the values were obtained:
[1] = molecular target: SARS-CoV RBD homotrimer (RBD appended onto a cystine-stabilized, hyperglycosylated GCN4 trimerization tag) (SARS-CoV) (UniProt P59594); test: SDS-PAGE under non-reducing conditions
[2] = molecular target: WIV1-CoV RBD homotrimer (RBD appended onto a cystine-stabilized, hyperglycosylated GCN4 trimerization tag) (WIV1-CoV); test: SDS-PAGE under non-reducing conditions

Substance | stoichiometry N [1] | stoichiometry N [2]
SARS-CoV RBD homotrimer (RBD appended onto a cystine-stabilized, hyperglycosylated GCN4 trimerization tag) (from UniProt P59594) | 3 | 
WIV1-CoV RBD homotrimer (RBD appended onto a cystine-stabilized, hyperglycosylated GCN4 trimerization tag) |  | 3

From article doi:10.1101/2020.12.07.415216
